Values quoted from earlier work as cited in article PMC10746204.

Target: IFNAR2 (Homo sapiens) (UniProt P48551)
UniProt P48551, sequence (P48551 27-243): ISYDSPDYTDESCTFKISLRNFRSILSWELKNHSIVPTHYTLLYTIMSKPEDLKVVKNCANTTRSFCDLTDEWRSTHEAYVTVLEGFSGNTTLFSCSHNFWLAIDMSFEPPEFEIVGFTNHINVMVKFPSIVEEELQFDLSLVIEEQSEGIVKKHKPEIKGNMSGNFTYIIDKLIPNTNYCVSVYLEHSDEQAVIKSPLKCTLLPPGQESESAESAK

## IFNα14 (from UniProt P01570)
  Kd: 700 pM
